Where a SMILES comes first, the peptide text is derived from it.
T1: human CIB2 (Homo sapiens, UniProt O75838)
T1 construct: made in house
T1 sequence (O75838 1-187): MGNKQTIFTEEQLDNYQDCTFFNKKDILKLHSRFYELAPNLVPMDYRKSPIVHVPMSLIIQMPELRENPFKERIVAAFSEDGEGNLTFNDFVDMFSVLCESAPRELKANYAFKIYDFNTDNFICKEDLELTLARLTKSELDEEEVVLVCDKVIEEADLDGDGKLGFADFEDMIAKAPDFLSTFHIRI


Tests used:
[1] = target: T1, human CIB2; experiment: Cross-linking (DSBU)/MALDI-TOF-MS of CIB2 with α7B peptides; type: binding
Experimental: CIB2 samples were cross-linked with DSBU in the presence of peptide α7B_M or α7B_Scrb as described in ref.[14] Briefly, 10 µM CIB2 was diluted in 20 mM HEPES, pH 7.5, 1 mM DTT, 1 mM Mg^2+ and 2 mM Ca^2+ and incubated with increasing peptide concentrations (5 µM, 10 µM, and 20 µM) for 10 min at room temperature. Then, 50-fold molar excess of DSBU was added and the reactions were conducted for 20 min at room temperature. As control, CIB2 was treated with DSBU without peptide. Reactions were blocked by adding ammonium bicarbonate to a final concentration of 20 mM.
Cross-linked CIB2 samples were desalted via ZipTip C4 tips (Millipore) before MALDI-TOF-MS analysis (Ultraflex III MALDI-TOF/TOF mass spectrometer, Bruker Daltonik, Bremen) was conducted using sinapinic acid as matrix. For further details see Supplementary Methods. Baseline subtraction and spectra smoothing were performed. […]
Cross-linking reactions and Mass Spectrometry
Cross-linking reactions were performed with 10 µM CIB2 (in 20 mM HEPES pH 7.5, 150 mM KCl, 1 mM DTT, 1 mM Mg2+, 2 mM Ca2+) and increasing concentrations of peptides α7B_M and α7B_Scrb, ranging from 0.5:1 to 2:1 peptide:protein ratios. After incubating the samples for 10 minutes at room temperature, DSBU (freshly prepared solution, dissolved in neat DMSO) was added to the mixture at 50-fold molar excess compared to CIB2 concentration. As the final volume of the reaction mixture was 50 µL, 1 µL of 25 mM DSBU was added to each sample. After 20 minutes, the cross-linking reactions were quenched by adding ammonium bicarbonate to a final concentration of 20 mM. Samples were incubated for 10 minutes before SDS-PAGE analysis was performed (data not shown). Samples for MALDI-TOF-MS measurements were desalted by ZipTip C4 (Millipore) and desalted protein was eluted with 70% (v/v) acetonitrile / 1% (v/v) formic acid. Each sample was mixed with a saturated solution of sinapinic acid (in 50% (v/v) methanol / 0.1% (v/v) TFA) at 1:1 ratio and spotted onto the MALDI target. […]

[2] = system: CIB2; conditions: cited from earlier work
Excerpt: In a recent study[8] we investigated the capability of CIB2 to bind Ca^2+ and Mg^2+ thereby switching to a functionally distinct structural state. By integrating several biochemical and biophysical techniques we could establish that in the absence of any cation CIB2 forms a molten globule state that essentially lacks tertiary structure. […] This is quite unusual for Ca^2+-sensor pro ... || The second approach (direct peptide immobilization) led to very low signals and unreproducible results and was not pursued any further. […] In spite of such differences, which might ... || Interaction with α7B occurs in the region proximal to the membrane and not close to the C-terminus of the cytosolic domain of the integrin. The recognition between CIB2 and the α7B target is kinetically favored in the presence of physiological Mg^2+ and in the absence of Ca^2+ and it might induce binding of another CIB2 molecule. […] However, CIB2 per se binds a single peptide as a monomer, and the complex could then induce CIB2 dimerization, ...

[3] = Native ESI-MS oligomeric state of CIB2; type: physicochemical; conditions: 14 µM CIB2 in 200 mM ammonium acetate, pH 6.8; collision energy 60 V
Experimental: For native ESI-MS analyses (High-Mass Q-TOF II mass spectrometer, Waters/MSVision), CIB2 was prepared in 200 mM ammonium acetate, pH 6.8.

[4] = system: Trypsin; experiment: Limited proteolysis of CIB2 with trypsin; conditions: 30 min, 25 °C, 25 µM CIB2, trypsin 1:100, SDS-PAGE
Experimental: (§1) Figure 5 CIB2 limited proteolysis. (A) 10 µM CIB2 was incubated at 25 °C in the presence of 1 mM EDTA (Apo), 500 µM EGTA + 1 mM Mg^2+ (Mg^2+) and 1 mM Mg^2+ + 2 mM Ca^2+ for 10 minutes at 25 °C. Samples were boiled and loaded in a 18% SDS polyacrylamide gel. (B) Limited proteolysis was performed incubating trypsin with 25 µM CIB2 in the same concentrations of ions used for (A) (protein:enzyme ratio was 100:1). Samples were collected at different times, boiled and loaded on a 18% SDS-PAGE. Both gels run for 45–50 min, then they were Coomassie Blue-stained. The figure results from two separate gels, which have been reported in full length in Fig. S6.
Limited proteolysis experiments were performed incubating 25 µM CIB2 in the presence of Trypsin (Sigma) in a ratio 1:100 enzyme:CIB2 at 25 °C. Three conditions were tested: 1 mM EDTA, 500 µM EGTA + 1 mM Mg^2+ and 1 mM Mg^2+ + 2 mM Ca^2+. Time-resolved proteolysis patterns are reported in Supplementary Materials (Fig. S2), results shown in Fig. 5 refer to reactions stopped after 5 min and 30 min. Proteolysis products were loaded on a 15% or 18% SDS gel, as indicated.
His-tagged proteins, and then blocked via amine coupling as explained above. Preparation of the […]
approximately 2250 RU of CIB2 immobilized. […]

[5] = CIB2 stability at 25 °C without trypsin (SDS-PAGE); type: physicochemical; conditions: 10 µM CIB2, 10 minutes at 25 °C; EDTA, Mg^2+, Mg^2+ + Ca^2+
Experimental: as §1

Molecule	1:2 CIB2/peptide complex ([1]; 10 µM CIB2, 5, 10, 20 µM peptide, 50-fold DSBU, 1 mM Mg^2+, 2 mM Ca^2+)	CIB2/peptide complex formation, 1:1 ([1]; 10 µM CIB2, 5, 10, 20 µM peptide, 50-fold DSBU, 20 mM HEPES pH 7.5, 1 mM Mg^2+, 2 mM Ca^2+, room temperature)	2:1 CIB2 and peptide complex ([1]; cross-linking experiments with DSBU, 1 mM Mg^2+, 2 mM Ca^2+)	fluorescence titration of CIB2 ([2]; peptide intrinsic fluorescence)	oligomeric state by MS and XL-MS ([1]; all tested conditions, MS and XL-MS)	oligomeric state, native MS [3]	native band after trypsin ([4]; 1 mM EDTA (apo))	native band after trypsin ([4]; 1 mM Mg^2+ or 1 mM Mg^2+ + 2 mM Ca^2+)	degradation without trypsin [5]	CIB2:target peptide stoichiometry ([2]; fluorescence)
CSCC[C@H](NC(=O)[C@H](CCCCN)NC(=O)[C@H](Cc1c[nH]c2ccccc12)NC(=O)[C@H](CC(C)C)NC(=O)[C@H](CC(C)C)NC(=O)[C@H](CC(C)C)NC(C)=O)C(=O)NCC(=O)N[C@@H](Cc1ccccc1)C(=O)N[C@@H](Cc1ccccc1)C(=O)N[C@@H](CCCCN)C(=O)N[C@@H](CCCNC(=N)N)C(=O)N[C@@H](C)C(=O)N[C@@H](CCCCN)C(=O)N[C@@H](Cc1c[nH]cn1)C(=O)N1CCC[C@H]1C(=O)N[C@@H](CCC(=O)O)C(N)=O [α7B_M] (Ac-LLLWKMGFFKRAKHPE-NH2)	A weak signal	a 1:1 CIB2/peptide complex appears in the mass spectra	never observed	fluorescence variation upon titration with α7B_M was much higher						
CIB2: Recombinant human CIB2, Ca^2+ and Mg^2+-binding protein (protein, left off: His tag, end not stated, cleaved) MGNKQTIFTEEQLDNYQDCTFFNKKDILKLHSRFYELAPNLVPMDYRKSPIVHVPMSLIIQMPELRENPFKERIVAAFSEDGEGNLTFNDFVDMFSVLCESAPRELKANYAFKIYDFNTDNFICKEDLELTLARLTKSELDEEEVVLVCDKVIEEADLDGDGKLGFADFEDMIAKAPDFLSTFHIRI					remained monomeric in all tested conditions	no signals of CIB2 dimers, nor higher order oligomers were detected	completely lost	permitted the detection of the native CIB2 band even after 30 min	some propensity to degradation	2:1 stoichiometry

— PMC6803640, “Oligomeric state, hydrodynamic properties and target recognition of human Calcium and Integrin Binding protein 2 (CIB2)” (Scientific Reports, 2019)
